One assay addresses Rab9 (UniProt P51151). Conditions: cited from earlier work.
In assay [1] the target is eIF2 (yeast (Saccharomyces cerevisiae)) (UniProt P20459).
The target of assay [2] is eIF5 (Saccharomyces cerevisiae) (UniProt P38431). Particulars: cited from earlier work.
Assay [3] deals with eIF2 (yeast (Saccharomyces cerevisiae)) (UniProt P20459). As to the kind of experiment: other; displacement of eIF2 from GST-eIF5 (GDF assay). Conditions: complex; chains chain;chain;chain;chain.
Assay [4] has the same target. The assay is described as follows: pull-down; GDF assay (competition): 1 µg eIF2 or eIF2αP and 1 µg GST-eIF5 bound to glutathione sepharose beads 2 h at 4°C, washed, then challenged 2 h at 4°C with increasing concentrations of Flag-eIF2B complexes, subunits or eIF5-Flag; 30 mM HEPES, 100 mM KCl, 100 µM GDP, 5 mM DTT, 1 mM NaF, 2.5 mM MgCl2, 0.05% Triton X-100; bound eIF2 by immunoblot; fit y = 1 − [x/(x + IC50)]. For orientation: Immunoblotting shows a protein as a band on a membrane.

A further assay has as its target T1, eIF2 (yeast (Saccharomyces cerevisiae), UniProt P20459 1-304; P09064 1-285; P32481 1-527).
T1 chain 1: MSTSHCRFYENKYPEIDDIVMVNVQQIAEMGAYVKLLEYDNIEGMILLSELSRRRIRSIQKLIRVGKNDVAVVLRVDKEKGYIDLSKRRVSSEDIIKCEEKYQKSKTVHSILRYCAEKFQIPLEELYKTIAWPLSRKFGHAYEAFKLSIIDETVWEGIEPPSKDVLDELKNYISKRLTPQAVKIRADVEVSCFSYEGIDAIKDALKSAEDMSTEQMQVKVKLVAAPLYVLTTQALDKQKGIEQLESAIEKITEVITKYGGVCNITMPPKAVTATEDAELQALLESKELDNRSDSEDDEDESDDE
T1 chain 2: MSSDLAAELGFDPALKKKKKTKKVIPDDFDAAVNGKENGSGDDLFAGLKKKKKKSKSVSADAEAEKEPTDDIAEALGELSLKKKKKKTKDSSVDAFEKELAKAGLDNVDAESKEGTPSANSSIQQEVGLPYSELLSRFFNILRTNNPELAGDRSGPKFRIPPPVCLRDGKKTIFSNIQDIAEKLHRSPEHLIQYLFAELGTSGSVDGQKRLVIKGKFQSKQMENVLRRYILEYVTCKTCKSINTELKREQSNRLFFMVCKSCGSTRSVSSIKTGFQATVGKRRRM
T1 chain 3: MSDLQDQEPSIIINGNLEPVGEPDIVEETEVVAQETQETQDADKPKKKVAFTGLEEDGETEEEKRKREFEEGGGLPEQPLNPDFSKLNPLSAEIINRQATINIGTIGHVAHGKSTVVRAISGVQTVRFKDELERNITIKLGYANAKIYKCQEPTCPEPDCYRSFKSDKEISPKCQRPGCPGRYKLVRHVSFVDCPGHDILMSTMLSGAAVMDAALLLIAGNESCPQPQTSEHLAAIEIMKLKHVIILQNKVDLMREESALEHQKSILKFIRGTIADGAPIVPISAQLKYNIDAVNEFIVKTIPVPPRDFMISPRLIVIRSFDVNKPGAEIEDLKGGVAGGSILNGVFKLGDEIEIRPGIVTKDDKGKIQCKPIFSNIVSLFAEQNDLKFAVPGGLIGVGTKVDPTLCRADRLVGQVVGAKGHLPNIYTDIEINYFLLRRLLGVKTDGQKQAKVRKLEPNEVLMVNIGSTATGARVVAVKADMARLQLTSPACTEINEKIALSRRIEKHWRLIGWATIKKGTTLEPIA
The assay is described as follows: displacement of eIF2 from GST-eIF5 (GDF assay).

Assay [5] concerns the target eIF2 (yeast (Saccharomyces cerevisiae)) (UniProt P20459). The assay is described as follows: pull-down; GDF assay (competition): 1 µg eIF2 or eIF2αP and 1 µg GST-eIF5 bound to glutathione sepharose beads 2 h at 4°C, washed, then challenged 2 h at 4°C with increasing concentrations of Flag-eIF2B complexes, subunits or eIF5-Flag; 30 mM HEPES, 100 mM KCl, 100 µM GDP, 5 mM DTT, 1 mM NaF, 2.5 mM MgCl2, 0.05% Triton X-100; bound eIF2 by immunoblot; fit y = 1 − [x/(x + IC50)]. This is another data set of the same source.

One may read the Kd as the concentration at which binding is half-saturated. The term IC50 denotes the concentration that inhibits the measured activity by half.

Chain of Rab9 (P51151 2-201): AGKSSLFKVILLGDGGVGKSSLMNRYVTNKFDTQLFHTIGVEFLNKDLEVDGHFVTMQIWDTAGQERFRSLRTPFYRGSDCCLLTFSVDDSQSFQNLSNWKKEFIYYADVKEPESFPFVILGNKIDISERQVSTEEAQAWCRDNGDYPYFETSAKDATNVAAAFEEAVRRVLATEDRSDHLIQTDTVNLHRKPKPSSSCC
Chain of eIF5 (Saccharomyces cerevisiae) (P38431 whole entry): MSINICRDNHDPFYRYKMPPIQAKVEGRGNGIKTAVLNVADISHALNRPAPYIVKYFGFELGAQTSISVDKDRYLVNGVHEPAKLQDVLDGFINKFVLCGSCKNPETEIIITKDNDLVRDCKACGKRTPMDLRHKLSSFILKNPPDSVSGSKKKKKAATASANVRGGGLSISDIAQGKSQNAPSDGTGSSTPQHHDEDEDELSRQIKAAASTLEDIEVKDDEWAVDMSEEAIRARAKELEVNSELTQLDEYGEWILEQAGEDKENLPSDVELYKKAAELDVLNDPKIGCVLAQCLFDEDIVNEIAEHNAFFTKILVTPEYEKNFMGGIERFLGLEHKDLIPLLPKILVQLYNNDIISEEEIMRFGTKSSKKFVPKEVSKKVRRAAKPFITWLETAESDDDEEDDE

Turning to GDIα (from UniProt P21856), in the assay with Rab9, the Kd was less than 23 nM.

For the molecule “eIF2B-γG12V (mutant eIF2B complex) (from UniProt P14741 1-305; P32502 1-381; P09032 1-578; P12754 1-651; P32501 1-712)”, the K1/2 of mutant eIF2B for [3H]GDP release from eIF2 prebound to eIF5 (coupled GDI–GDF–GEF assay; pair displaced: eIF2 and eIF5) in assay [1] was found to be 134 nM.

As to eIF2 (from UniProt P20459), the Kd in assay [2] is 23 nM.

In turn, “four-subunit eIF2B complex lacking the α subunit (eIF2Bβδγɛ), P32502 1-381; P12754 1-651; P09032 1-578; P32501 1-712” showed an IC50 in assay [3] of 25.7 nM.

“eIF2B-γL480Q (mutant eIF2B complex) (from UniProt P14741 1-305; P32502 1-381; P09032 1-578; P12754 1-651; P32501 1-712)” came in with a K1/2 of mutant eIF2B for [3H]GDP release from eIF2 prebound to eIF5 (coupled GDI–GDF–GEF assay; pair displaced: eIF2 and eIF5) in assay [1] of 134 nM. Consider “Flag-tagged eIF5 (eIF5-Flag) (from UniProt P38431 1-405) (natural protein)”, for which the IC50 in assay [4] is 244 nM.

B1: eIF2Bγ subunit alone (natural protein)
chain: MSIQAFVFCGKGSNLAPFTQPDFPFQTQNKDSTAATSGDKLNELVNSALDSTVINEFMQHSTRLPKALLPIGNRPMIEYVLDWCDQADFKEISVVAPVDEIELIESGLTSFLSLRKQQFELIYKALSNSNHSHHLQDPKKINFIPSKANSTGESLQKELLPRINGDFVILPCDFVTDIPPQVLVDQFRNRDDNNLAMTIYYKNSLDSSIDKKQQQKQKQQQFFTVYSENEDSERQPILLDVYSQRDVTKTKYLQIRSHLLWNYPNLTVSTKLLNSFIYFCSFELCQLLKLGPQSMSRQASFKDPFTGNQQQQNPPTTDDDEDRNHDDDDDYKPSATSIQPTYFKKKNDLILDPINCNKSLSKVFRDLSRRSWQHSKPREPIGIFILPNETLFIRANNLNAYMDANRFVLKIKSQTMFTKNIQIQSAAIGADAIVDPKCQISAHSNVKMSVLGTQANIGSRCRVAGSLLFPGVHLGDEVILENCIIGPMAKIGSKCKLSNCYIEGHYVVEPKNNFKGETLANVYLDEDEEDELIYDDSVIAGESEIAEETDSDDRSDEDSDDSEYTDEYEYEDDGLFER
With B1, the IC50 with eIF2 was determined as 318 nM.

B2: eIF2Bɛ subunit alone (natural protein)
chain: MAGKKGQKKSGLGNHGKNSDMDVEDRLQAVVLTDSYETRFMPLTAVKPRCLLPLANVPLIEYTLEFLAKAGVHEVFLICSSHANQINDYIENSKWNLPWSPFKITTIMSPEARCTGDVMRDLDNRGIITGDFILVSGDVLTNIDFSKMLEFHKKMHLQDKDHISTMCLSKASTYPKTRTIEPAAFVLDKSTSRCIYYQDLPLPSSREKTSIQIDPELLDNVDEFVIRNDLIDCRIDICTSHVPLIFQENFDYQSLRTDFVKGVISSDILGKHIYAYLTDEYAVRVESWQTYDTISQDFLGRWCYPLVLDSNIQDDQTYSYESRHIYKEKDVVLAQSCKIGKCTAIGSGTKIGEGTKIENSVIGRNCQIGENIRIKNSFIWDDCIIGNNSIIDHSLIASNATLGSNVRLNDGCIIGFNVKIDDNMDLDRNTKISASPLKNAGSRMYDNESNEQFDQDLDDQTLAVSIVGDKGVGYIYESEVSDDEDSSTEACKEINTLSNQLDELYLSDDSISSATKKTKKRRTMSVNSIYTDREEIDSEFEDEDFEKEGIATVERAMENNHDLDTALLELNTLRMSMNVTYHEVRIATITALLRRVYHFIATQTLGPKDAVVKVFNQWGLLFKRQAFDEEEYIDLMNIIMEKIVEQSFDKPDLILFSALVSLYDNDIIEEDVIYKWWDNVSTDPRYDEVKKLTVKWVEWLQNADEESSSEEE
As to B2, the IC50 in assay [5] stood at 215 nM.

B3: eIF2Bγɛ subcomplex (catalytic subcomplex of eIF2B) (complex)
chain 1: MSIQAFVFCGKGSNLAPFTQPDFPFQTQNKDSTAATSGDKLNELVNSALDSTVINEFMQHSTRLPKALLPIGNRPMIEYVLDWCDQADFKEISVVAPVDEIELIESGLTSFLSLRKQQFELIYKALSNSNHSHHLQDPKKINFIPSKANSTGESLQKELLPRINGDFVILPCDFVTDIPPQVLVDQFRNRDDNNLAMTIYYKNSLDSSIDKKQQQKQKQQQFFTVYSENEDSERQPILLDVYSQRDVTKTKYLQIRSHLLWNYPNLTVSTKLLNSFIYFCSFELCQLLKLGPQSMSRQASFKDPFTGNQQQQNPPTTDDDEDRNHDDDDDYKPSATSIQPTYFKKKNDLILDPINCNKSLSKVFRDLSRRSWQHSKPREPIGIFILPNETLFIRANNLNAYMDANRFVLKIKSQTMFTKNIQIQSAAIGADAIVDPKCQISAHSNVKMSVLGTQANIGSRCRVAGSLLFPGVHLGDEVILENCIIGPMAKIGSKCKLSNCYIEGHYVVEPKNNFKGETLANVYLDEDEEDELIYDDSVIAGESEIAEETDSDDRSDEDSDDSEYTDEYEYEDDGLFER
chain 2: MAGKKGQKKSGLGNHGKNSDMDVEDRLQAVVLTDSYETRFMPLTAVKPRCLLPLANVPLIEYTLEFLAKAGVHEVFLICSSHANQINDYIENSKWNLPWSPFKITTIMSPEARCTGDVMRDLDNRGIITGDFILVSGDVLTNIDFSKMLEFHKKMHLQDKDHISTMCLSKASTYPKTRTIEPAAFVLDKSTSRCIYYQDLPLPSSREKTSIQIDPELLDNVDEFVIRNDLIDCRIDICTSHVPLIFQENFDYQSLRTDFVKGVISSDILGKHIYAYLTDEYAVRVESWQTYDTISQDFLGRWCYPLVLDSNIQDDQTYSYESRHIYKEKDVVLAQSCKIGKCTAIGSGTKIGEGTKIENSVIGRNCQIGENIRIKNSFIWDDCIIGNNSIIDHSLIASNATLGSNVRLNDGCIIGFNVKIDDNMDLDRNTKISASPLKNAGSRMYDNESNEQFDQDLDDQTLAVSIVGDKGVGYIYESEVSDDEDSSTEACKEINTLSNQLDELYLSDDSISSATKKTKKRRTMSVNSIYTDREEIDSEFEDEDFEKEGIATVERAMENNHDLDTALLELNTLRMSMNVTYHEVRIATITALLRRVYHFIATQTLGPKDAVVKVFNQWGLLFKRQAFDEEEYIDLMNIIMEKIVEQSFDKPDLILFSALVSLYDNDIIEEDVIYKWWDNVSTDPRYDEVKKLTVKWVEWLQNADEESSSEEE
Molecule B3 had an IC50 with eIF2 of 20 nM.

These data come from article PMC3877758 (2013).
